Test results taken from the RNAGym collection of RNA variant scans (doi:10.1021/acssynbio.7b00057).

B1: Pistol ribozyme (parent)
chain: GGGUCGUUGUUCCAUAAUCGCGUGGAUAUGGCACGCAAGUUUCUACCGGGCACCGUAAAUGUCCGACUGGAGCCGUUCGGGCGGCUAUAAACAGACCUCAGGCCCGAAGCGUGGCGGCACCUGCCGCCGGUGGUAAAAAAGAUCGGAAGAGCACACGUCU

Variants of: B1
Test: aptazyme ON/OFF ratio, guanine; higher = stronger switching; co-transcriptional cleavage with and without guanine

Row | Variant | aptazyme ON/OFF ratio
1 | U8A G9U U10A U11C C12G C13A | 1.14
2 | U8A G9U U10C U11G C13A | 1.12
3 | U8A G9U U10C U11G C13G | 1.05
4 | U8A G9U U10C U11G C13U | 1.14
5 | U8A G9U C12A C13A | 1.52
6 | U8A G9U C12A C13U | 1.15
7 | U8A G9U C12A C13G | 1.16
8 | U8A G9C U11C C12G C13G | 1.05
9 | U8A G9C U11C C12G C13U | 1.06
10 | U8A G9C U11C C12G C13A | 1.07
11 | U8A G9U U10C U11G C12U C13G | 1.14
12 | U8A G9U U10C U11G C12U C13A | 1.11
13 | U8A G9U U10C U11G C12U C13U | 1.25
14 | U8A G9C U10G U11A C13U | 1.02
15 | U8A G9C U10G U11A C13G | 1.06
16 | U8A G9U U10G U11C C12G C13A | 1.08
17 | U8A G9U U10G U11C C12G C13G | 1.07
18 | U8A G9U U10G U11C C12G C13U | 1.12
19 | U8A G9U U10C U11C C12A | 1.01
20 | U8A G9U U10C U11C C12G | 1.03
21 | U8A G9U U10C U11C C12U | 1.04
22 | U8A G9U U10C U11A C12U C13A | 1.26
23 | U8A G9U U10C U11A C12U C13U | 1.15
24 | U8A G9U U10C U11A C12U C13G | 1.1

Row | Variant | aptazyme ON/OFF ratio
25 | U8A G9U U10G U11G C12G C13U | 1.34
26 | U8A G9U U10G U11G C12G C13A | 1.05
27 | U8A G9U U10G U11G C12G C13G | 1.32
28 | U8A G9U U11C C12U C13G | 1.06
29 | U8A G9U U11C C12U C13U | 1.16
30 | U8A G9U U11C C12U C13A | 1.2
31 | U8A G9C U10G U11C C13U | 1.03
32 | U8A G9C U10G U11C C13A | 1.11
33 | U8A G9C U10G U11C C13G | 1.06
34 | U8A G9U | 2.15
35 | U8A G9U U10G C12A C13G | 1.12
36 | U8A G9U U10G C12A C13A | 1.18
37 | U8A G9U U10G C12A C13U | 1.5
38 | U8A G9C U10G U11G C12U | 1.23
39 | U8A G9C U10G U11G C12G | 1.24
40 | U8A G9C U10G U11G C12A | 1.14
41 | U8A G9U U10A C13A | 1.26
42 | U8A G9U U10A C13G | 1.1
43 | U8A G9U U10A C13U | 1.2
44 | U8A G9U U11A C13U | 1.24
45 | U8A G9U U11A C13A | 1.1
46 | U8A G9U U11A C13G | 1.13
47 | U8A G9C U11G C13A | 1.15
48 | U8A G9C U11G C13G | 1.04

Row | Variant | aptazyme ON/OFF ratio
49 | U8A G9C U11G C13U | 1.17
50 | U8A G9U U11C C12A C13U | 1.11
51 | U8A G9U U11C C12A C13G | 1.07
52 | U8A G9U U11C C12A C13A | 1.14
53 | U8A G9U U11G C12G C13A | 1.25
54 | U8A G9U U11G C12G C13G | 1.24
55 | U8A G9U U11G C12G C13U | 1.16
56 | U8A G9U U10G U11C C12A C13G | 1.03
57 | U8A G9U U10G U11C C12A C13U | 1.15
58 | U8A G9U U10G U11C C12A C13A | 1.09
59 | U8A G9U U10G U11A C12U C13A | 1.13
60 | U8A G9U U10G U11A C12U C13U | 1.12
61 | U8A G9U U10G U11A C12U C13G | 1.16
62 | U8A G9U U10A U11A C12U | 1.32
63 | U8A G9U U10A U11A C12G | 1.25
64 | U8A G9U U10A U11A C12A | 1.36
65 | U8A G9U U10A U11G C12G C13U | 1.31
66 | U8A G9U U10A U11G C12G C13G | 1.24
67 | U8A G9U U10A U11G C12G C13A | 1.1
68 | U8A G9U U10C U11A C12G C13U | 1.14
69 | U8A G9U U10C U11A C12G C13G | 1.12
70 | U8A G9U U10C U11A C12G C13A | 1.15
71 | U8A G9C U11C C12G | 1.07
72 | U8A G9C U11C C12U | 1.09

Row | Variant | aptazyme ON/OFF ratio
73 | U8A G9C U11C C12A | 1.08
74 | U8A G9U U10C U11C C12G C13G | 1.08
75 | U8A G9U U10C U11C C12G C13A | 1.07
76 | U8A G9U U10C U11C C12G C13U | 1.02
77 | U8A G9C U10G U11C C12G C13A | 1.27
78 | U8A G9C U10G U11C C12G C13G | 1.17
79 | U8A G9C U10G U11C C12G C13U | 1.19
80 | U8A G9U U10A U11A C12G C13A | 1.27
81 | U8A G9U U10A U11A C12G C13G | 1.32
82 | U8A G9U U10A U11A C12G C13U | 1.38
83 | U8A G9U U10A C12A C13G | 1.12
84 | U8A G9U U10A C12A C13A | 1.22
85 | U8A G9U U10A C12A C13U | 1.36
86 | U8A G9U U10G U11A C12G C13U | 1.28
87 | U8A G9U U10G U11A C12G C13G | 1.31
88 | U8A G9U U10G U11A C12G C13A | 1.27
89 | U8A G9U U11G C12U | 1.51
90 | U8A G9U U11G C12G | 1.12
91 | U8A G9U U11G C12A | 1.07
92 | U8A G9C U11C C12U C13U | 1.01
93 | U8A G9C U11C C12U C13A | 1.05
94 | U8A G9C U11C C12U C13G | 1.04
95 | U8A G9C U11A C12A C13A | 1.22
96 | U8A G9C U11A C12A C13G | 1.18

Row | Variant | aptazyme ON/OFF ratio
97 | U8A G9C U11A C12A C13U | 1.21
98 | U8A G9C U11A C12U C13G | 1.15
99 | U8A G9C U11A C12U C13U | 1.15
100 | U8A G9C U11A C12U C13A | 1.14
101 | U8A G9U U10G U11A C13G | 1.03
102 | U8A G9U U10G U11A C13A | 1.02
103 | U8A G9U U10G U11A C13U | 1.03
104 | U8A G9U U10A U11C C12A C13U | 1.25
105 | U8A G9U U10A U11C C12A C13G | 1.2
106 | U8A G9U U10A U11C C12A C13A | 1.23
107 | U8A G9U U10A U11C C13G | 1.08
108 | U8A G9U U10A U11C C13A | 1.04
109 | U8A G9U U10A U11C C13U | 1.02
110 | U8A G9U U10A U11G C12U | 1.37
111 | U8A G9U U10A U11G C12A | 1.07
112 | U8A G9U U10A U11G C12G | 1.24
113 | U8A G9U U10C C12A C13A | 1.09
114 | U8A G9U U10C C12A C13G | 1.06
115 | U8A G9U U10C C12A C13U | 1.05
116 | U8A G9U U10G C12G | 1.13
117 | U8A G9U U10G C12A | 1.18
118 | U8A G9U U10G C12U | 1.13
119 | U8A G9U U10G U11A C12G | 1.28
120 | U8A G9U U10G U11A C12A | 1.21

Row | Variant | aptazyme ON/OFF ratio
121 | U8A G9U U10G U11A C12U | 1.05
122 | U8A G9U U10G U11C C13G | 1.04
123 | U8A G9U U10G U11C C13A | 1.03
124 | U8A G9U U10G U11C C13U | 1.02
125 | U8A G9C U10G U11C C12A C13U | 1.21
126 | U8A G9C U10G U11C C12A C13A | 1.17
127 | U8A G9C U10G U11C C12A C13G | 1.12
128 | U8A G9U U11G C12U C13A | 1.41
129 | U8A G9U U11G C12U C13G | 1.19
130 | U8A G9U U10A U11A C12A C13U | 1.24
131 | U8A G9U U10A U11A C12A C13A | 1.16
132 | U8A G9U U10A U11A C12A C13G | 1.23
133 | U8A G9U U11A C12G | 1.09
134 | U8A G9U U11A C12U | 1.47
135 | U8A G9U U11A C12A | 1.28
136 | U8A G9U U11A C12U C13U | 1.08
137 | U8A G9U U11A C12U C13A | 1.52
138 | U8A G9U U11A C12U C13G | 1.09
139 | U8A G9U U10C U11C C12A C13U | 1.04
140 | U8A G9U U10C U11C C12A C13G | 1.05
141 | U8A G9U U10C U11C C12A C13A | 1.01
142 | U8A G9U U10C U11A C12G | 1.06
143 | U8A G9U U10C U11A C12A | 1.11
144 | U8A G9U U10C U11A C12U | 1.18

Row | Variant | aptazyme ON/OFF ratio
145 | U8A G9C U10G U11C C12U C13A | 1.13
146 | U8A G9C U10G U11C C12U C13G | 1.18
147 | U8A G9C U10G U11C C12U C13U | 1.16
148 | U8A G9U U10G C12U C13A | 1.31
149 | U8A G9U U10G C12U C13U | 1.45
150 | U8A G9U U10G C12U C13G | 1.27
151 | U8A G9C U11G C12U C13A | 1.31
152 | U8A G9C U11G C12U C13G | 1.27
153 | U8A G9C U11G C12U C13U | 1.08
154 | U8A G9C U10G U11C | 1.05
155 | U8A G9C U10G U11G | 1.07
156 | U8A G9U U10A C12G | 1.31
157 | U8A G9U U10A C12A | 1.34
158 | U8A G9U U10A C12U | 1.4
159 | U8A G9U U10A U11G C12U C13A | 1.27
160 | U8A G9U U10A U11G C12U C13U | 1.4
161 | U8A G9U U10A U11G C12U C13G | 1.17
162 | U8A G9U U10A U11A C13G | 1.07
163 | U8A G9U U10A U11A C13U | 1.28
164 | U8A G9U U10A U11A C13A | 1.29
165 | U8A G9C U10G U11G C13A | 1.23
166 | U8A G9C U10G U11G C13G | 1.16
167 | U8A G9C U10G U11G C13U | 1.23
